According to patent US20260137799A1, “ANTI-MUC1* ANTIBODY DRUG COMPLEXES AND USES THEREOF” (Minerva Biotechnologies Corporation, priority 2023, published 2026):

Tests used:
T47D = experiment: xCELLigence impedance cytotoxicity, T47D; assay type: cell-based, human; details: Example 9 (FIGS. 35-36); average over batches for DXd ADCs; read-out: IC50 for killing of breast cancer T47D-wt cells
Method: (§1) An xCELLigence RTCA MP Instrument (Agilent) was used to assess real-time killing of target cancer cells). In the xCELLigence system, target cancer cells, which are adherent, are plated onto electrode array 96-well plates. Adherent cells insulate the electrode and increase the impedance. The number of adherent cancer cells is directly proportional to impedance. […] Therefore, increasing impedance reflects the growth of the cancer cells and decreasing impedance reflects the killing of the cancer cells.
(§2) Target Cancer cells (Table 9) were seeded onto a multi-electrode well plate at a density of 5000 cells/well (100 μL of a 50,000 cells/mL stock) and incubated for 24 hr in a 37° C./5% CO2 incubator. ADCs were prepared as a 2× solution in corresponding growth media and 100 μL of each concentration was added to target cells. As a positive control (100% cell killing) cells were treated with either 1% triton or 1 μM Taxol instead of ADC. After 40-120 hours incubation in a 37° C./5% CO2 incubator cell killing was assessed. In this assay, impedance is measured in real-time. When the adherent cancer cells are killed and come off the electrode surface, impedance (insulation) decreases.

HPAF-II MUC1* = experiment: xCELLigence impedance cytotoxicity, HPAF-II MUC1*; assay type: cell-based, human; details: Example 9 (FIG. 35); average; read-out: IC50, HPAFII cells engineered to express MUC1*45
Method: as §1, §2

[1] = system: H1975 lung cancer cells (H1975-wt); experiment: Antibody internalization (pHrodo Deep Red), H1975-wt; assay type: cell-based, human; details: H1975 cells
Method: (§3) Antibodies C2 and 3C2B1 were tested for their ability to be internalized by H1975 lung cancer cells (H1975-wt) and H1975 cells that were engineered to express high levels of a recombinant MUC1* polypeptide with a 45 amino acid extracellular domain (H1975-MUC1*45). In contrast to the T47D breast cancer cells, H1975-wt cells internalized 3C2B1 faster than they internalized C2 (FIGS. 4A1-4A28, 4C1-4C28 and 4E). Two (2) hours post incubation with H1975-wt cells, […] the cells had internalized C2. […] Similar to the T47D cells, MUC1*45 expression increased the internalization rate of C2 and decreased the internalization rate of 3C2B1 (FIGS. 4B1-4B28, 4D1-4D28 and 4E).
(§4) Antibodies C2 and 3C2B1 were coupled to a pH sensitive fluorophore using the pHrodo Deep Red TFP Ester kit (Thermo cat #P35356), according to manufacturer instructions. Cancer cells were seeded at ˜50,000 cells/well onto μ-Slide 8-well tissue culture-treated, chambered coverslip wells (Ibidi 80806) in their recommended media with 10% FBS. Cells were cultured for 48 hours. Slides were transferred into microscope chamber (37° C.—5% CO2) and equilibrated for ˜30 minutes. The pHrodo Deep Red coupled antibody was then diluted to a concentration of 200 to 300 μg/mL into pre-warmed media supplemented with 10% FBS. Media was removed from the chamber slides and the diluted antibodies were separately added. Fluorescent (655 nm) and phase contrast images at were collected every 10 min for 12h or 16 h with a Leica Thunder Live Cell 3D microscope.
(§5) Internalization of the fluorescently labeled antibodies was quantified as follows. Images were imported into ImageJ. The selection tool was used to draw a region of interest (ROI) on the image. The integrated pixel density (mean gray-scale value×area) was then measured by the ImageJ software. Positively-stained cells were manually counted and the integrated pixel density was divided by the number of positive cells to yield “Pixel Intensity per positive cell”.

[2] = system: H2110-wt lung cancer cell line; experiment: xCELLigence impedance cytotoxicity, H2110; assay type: cell-based, human; details: Example 9 (FIGS. 35-36); read-out: IC50, lung cancer H2110-wt cells
Method: as §1, §2
(§6) To directly compare the C2 and 3C2B1 anti-MUC1* antibodies as ADC targeting domains, a panel of MUC1* positive cancer cell lines representing different cancer types were treated with C2-deruxtecan versus 3C2B1-deruxtecan (FIG. 35) or C2-MC-VA-PAB-exatecan versus 3C2B1-MC-VA-PAB-exatecan (FIG. 36). In some cases, the cancer cells were engineered to express high levels of MUC1*45.

MUC1*45 = MUC1*45 (UniProt P15941 1110-1255); experiment: cell-based or functional assay
HPAF-II = experiment: xCELLigence impedance cytotoxicity, HPAF-II; assay type: cell-based, human; details: Example 9 (FIG. 35); average; listed as 3C2B1-MC-GGFG-AM-DXd; read-out: IC50 for killing of HPAFII-wt pancreatic cancer cells
Method: as §1, §2

H1975-MUC1*45 cells = experiment: Antibody internalization (pHrodo Deep Red), H1975-MUC1*45; assay type: cell-based, human; details: H1975-MUC1*45 vs H1975-wt
Method: as §3, §4, §5

[3] = system: CFPAC1-wt pancreatic cancer cell line; experiment: xCELLigence impedance cytotoxicity, CFPAC1; assay type: cell-based, human; details: Example 9 (FIGS. 35-36); read-out: IC50, CFPAC1-wt pancreatic cancer cells
Method: as §1, §2, §6

[4] = system: breast cancer, pancreatic cancer, and lung cancer cell lines; experiment: Cytotoxicity of ADCs with additional linkers and toxins (FIGS. 30-31); assay type: cell-based; details: breast cancer and pancreatic cancer cell
Method: FIG. 30 is a table showing cytotoxicity of the indicated MUC1* ADCs against indicated cancer cells. IC50 values were determined from xCELLigence data. FIG. 30 discloses “GGFG” as SEQ ID NO: 160, “GGGG” as SEQ ID NO: 161, “GGVA” as SEQ ID NO: 162, “GGVG” as SEQ ID NO: 163.
FIG. 31 is a table showing cytotoxicity of the indicated MUC1* ADCs against indicated cancer cells. IC50 values were determined from PrestoBlue data.
An anti-MUC1* antibody was conjugated to several toxins via a number of different linkers (compounds VIII-XXII).

HPAFII = experiment: PrestoBlue live/dead cell assay, HPAFII; assay type: cell-based, human; details: Presto Blue; 72-120 hour incubation
Method: (§7) Another method of measuring the killing activity of ADCs against target cancer cells is to use the PrestoBlue live/dead cell assay (ThermoFisher). Target cancer cells were seeded in a black-walled, clear-bottom 96-well tissue culture plate at a density of 5000 cells/well (100 μL of a 50,000 cells/mL stock) and incubated overnight in a 37° C./5% CO2 incubator. ADCs were prepared as a 2× solution in corresponding cancer cell growth media and 100 μL of each concentration was added to target cancer cells. As a positive control (100% killing) cancer cells were treated with 1 μM Taxol instead of ADC. After 72 hour-120 hour incubation in a 37° C./5% CO2 incubator, cell viability was measure by fluorescence using the PrestoBlue HS assay (ThermoFisher). Briefly, after the incubation period, 20 μL of PrestoBlue HS solution was added. Fluorescence (Ex 560 nm/Em 590 nm) was recorded after 30-90 min. incubation using a Tecan plate reader. Percentage viability was determined by PrestoBlue HS staining and normalized to 1 μM taxol treated cells.
(§8) The normalized fluorescence values were imported into the graph program, Sigma Plot, data plotted as ADC concentration versus normalized fluorescence signal and curve fitted using a four-parameter Hill equation: f=y0+a*x^b/(c^b+x^b) to calculate IC50 values. IC50 values for the ADCs were generally consistent between the xCELLigence and Presto Blue assays.

T47D-MUC1* = experiment: PrestoBlue live/dead cell assay, T47D-MUC1*; assay type: cell-based, human; details: Presto Blue; 72-120 hour incubation
Method: as §7, §8

HPAFII-MUC1* = experiment: PrestoBlue live/dead cell assay, HPAFII-MUC1*; assay type: cell-based, human; details: Presto Blue; 72-120 hour incubation
Method: as §7, §8

[5] = Toxicity in animal studies; assay type: in vivo; details: each antibody incorporated into several ADC formats
From the text: Exatecans and deruxtecans can also have bystander effects. […] It is not completely clear whether these side effects are due to the payload or to the HER2 target, which is also expressed on normal lung and normal heart. The first two patients treated with a HER2 targeting CAR T cell product died shortly after the infusion. […] More recently, yet another patient died after being treated with a different HER2-targeting ADC. […] 32CB1, C2 and 20A10 unexpectedly have an extremely high degree of cancer specificity and elicited no toxicities in animal studies, where each antibody was incorporated into several ADC formats.

B1: 3C2B1-deruxtecan (antibody, V domains shown)
VH: EVMLVESGGGLVKPGGSLKLSCAASGITFSTYTMSWVRQTPEKRLEWVATISTGGDKTYYSDSVKGRFTISRDNAKNNLYLQMSSLRSEDTALYYCARGTTAMYYYAMDYWGQGTSVTVSS
VL: DIVLTQSPASLAVSLGQRATISCRASKSISTSDYNYIHWYQQKPGQPPKLLIYLASNLESGVPARFSGSGSGTDFTLNIHPVEEEDAATYYCQHSRELPLTFGAGTKLELK
modifications: deruxtecan (MC-GGFG-AM-DXd) on reduced cysteine thiols of the antibody, sites not stated; deruxtecan (MC-GGFG-AM-DXd) on reduced cysteine thiols of the antibody, sites not stated; average DAR 9.2
With B1 the IC50 (T47D) was 61 nM, the IC50 (HPAF-II MUC1*) was 160 nM and the “internalization rate of the ADC compared to antibody alone” value [1] was “about the same rate as the 3C2B1 antibody alone”. The IC50 [2] was 90 nM, the “IC50, killing of H1975 lung cancer cells engineered to express MUC1*45 (xCELLigence)” value (MUC1*45) was 343 nM and the “IC50, killing of T47D breast cancer cells engineered to express more MUC1*45 (xCELLigence)” value (MUC1*45) was 48 nM. The IC50 (HPAF-II) was over 303 nM, the “effect of MUC1*45 expression on internalization rate” value (H1975-MUC1*45 cells) was “inhibited” and the IC50 [3] was 34 nM.

B2: C2 MC-VA-AM DXd (conjugate, listed as Mus sp.)
heavy: EVQLEESGGGLVKPGGSLKLSCAASGFTFSGYAMSWVRQTPEKRLEWVATISSGGTYIYYPDSVKGRFTISRDNAKNTLYLQMSSLRSEDTAMYYCARLGGDNYYEYFDVWGAGTTVTVSSAKTTPPSVYAKTTPPSVYPLAPGSAAQTNSMVTLGCLVKGYFPEPVTVTWNSGSLSSGVHTFPAVLQSDLYTLSSSVTVPSSTWPSETVTCNVAHPASSTKVDKKIVPRDCGCKPCICTVPEVSSVFIFPPKPKDVLTITLTPKVTCVVVDISKDDPEVQFSWFVDDVEVHTAQTQPREEQFNSTFRSVSELPIMHQDWLNGKEFKCRVNSAAFPAPIEKTISKTKGRPKAPQVYTIPPPKEQMAKDKVSLTCMITDFFPEDITVEWQWNGQPAENYKNTQPIMDTDGSYFVYSKLNVQKSNWEAGNTFTCSVLHEGLHNHHTEKSLSHSPGK
light: DIVITQSTASLGVSLGQRATISCRASKSVSTSGYSYMHWYQQRPGQPPKLLIYLASNLESGVPARFSGSGSGTDFTLNIHPVEEEDAATYYCQHSRELPFTFGGGTKLEIKRADAAPTVSADAAPTVSIFPPSSEQLTSGGASVVCFLNNFYPKDINVKWKIDGSERQNGVLNSWTDQDSKDSTYSMSSTLTLTKDEYERHNSYTCEATHKTSTSPIVKSFNRNEC
modifications: conjugated MC-VA-AM DXd linker-toxin
With B2 the “IC50 compared to deruxtecan ADC” value [4] was “three-fold lower”.

B3: C2 MC-VC-PAB MMAF (conjugate, listed as Mus sp.)
heavy: B2 heavy
light: B2 light
modifications: MC-VC-PAB-MMAF
notes: ADC: antibody C2 conjugated via MC-VC-PAB linker to MMAF
B3 showed an IC50 (HPAFII) of 100 nM, an IC50 (T47D-MUC1*) of 1.3 nM and an IC50 (HPAFII-MUC1*) of 90 nM.

B4: 20A10: anti-MUC1* monoclonal antibody, IgG2b isotype (antibody)
VH: EVMLVESGGGLVKPGGSLKLSCAASGFTFSTYAMSWIRQTPEKRLEWVASIGRAGSTYYSDSVKGRFTISRDNVRNILYLQMSSLRSEDTAMYYCARGPIYNDYDEFAYWGQGTLVTVSAAKTTPPSVYPLAPGCGDTTGSSVTLGCLVKGYFPESVTVTWNSGSLSSSVHTFPALLQSGLYTMSSSVTVPSSTWPSQTVTCSVAHPASSTTVDKKLEPSGPISTINPCPPCKECHKCPAPNLEGGPSVFIFPPNIKDVLMISLTPKVTCVVVDVSEDDPDVRISWFVNNVEVHTAQTQTHREDYNSTIRVVSALPIQHQDWMSGKEFKCKVNNKDLPSPIERTISKIKGLVRAPQVYILPPPAEQLSRKDVSLTCLVVGFNPGDISVEWTSNGHTEENYKDTAPVLDSDGSYFIYSKLDIKTSKWEKTDSFSCNVRHEGLKNYYLKKTISRSPGK
VL: NIMMTQSPSSLAVSAGEKVTMSCKSSQSVLYSSNQKNYLAWYQQKPGQSPKLLIYWASTRESGVPDRFTGSGSGTDFTLTISSVQAEDLAVYYCHQYLSSLTFGAGTKLELKADAAPTVSIFPPSSEQLTSGGASVVCFLNNFYPKDINVKWKIDGSERQNGVLNSWTDQDSKDSTYSMSSTLTLTKDEYERHNSYTCEATHKTSTSPIVKSFNRNEC
For B4, the “toxicities in animal studies” value [5] was “no toxicities”.
